Here are results for 16 molecules from patent US11932673.

First the molecules themselves.
B1: KB_A01 (scFv, V domains shown)
VH: EVQLVESGGGLVRPGGSLRLSCAASGFTFSSYAMSWVRQAPGKGLEWVSAISGSGGSTYYADSVKGRFTISRDNTKNSLYLQMTSLRADDTAFYYCVKDFGPGYGTGWFDYWGPGTLVTVSS
VL: YLNWYQQKPGKAPKLLIYAAEVCPRILMRCKQDSDCLAGCVCGPNGFCGGTSGVPSRFSGSRSGTEFTLTISSLQPEDFATYYCQKVDDYPLTFGGGTKVEIKR
B2: KB_B01 (scFv, V domains shown)
VH: B1 VH
VL: AVNWYQQLPGKAPKLLIYAAAGCPRILMRCKQDSDCLAGCVCGPNGFCGTRSGVSDRFSGSKSGTSASLAISGLRSEDEADYYCAAWDDSLRAYVFGTGTKLTVLG
B3: KB_A02 (scFv, V domains shown)
VH: B1 VH
VL: AVNWYQQLPGKAPKLLIYAAAKCPRILMRCKQDSDCLAGCVCGPNGFCGGASGVSDRFSGSIDSSSNSASLTISGLKPEDEGDYYCQSYDSSNRWVFGGGTKVTVLG
B4: KB_C09 (scFv, V domains shown)
VH: B1 VH
VL: B3 VL with A21G, K22R, A51G, S55P, K77R, P78A, G82A, R94H, V103L
B5: KB_B02 (scFv, V domains shown)
VH: B1 VH
VL: AVNWYQQLPGKAPKLLIYAAVGCPRILMRCKQDSDCLAGCVCGPNGFCGTGSGIPERFSGSKSGNTASLTISGLQAEDEGDYYCAAWDDSLSGPVFGGGTKLTVLG
B6: KB_A06 (scFv, V domains shown)
VH: B1 VH
VL: AVNWYQQLPGKAPKLLIYAAVRCPRILMRCKQDSDCLAGCVCGPNGFCGTPSGIPERFSGSIDRSTNSASLTISGLKTEDEADYYCQSYDSSNLNWVFGGGTKLTVLG
B7: KB_A10 (scFv, V domains shown)
VH: B1 VH
VL: B5 VL with V21G, T50S, G51N, I54V, E56D, A76S, G80A, P94V, K101Q
B8: KB_C07 (scFv, V domains shown)
VH: B1 VH
VL: B2 VL with A21V, T50S, R51A, A86S, A93G, L102V
B9: KB_A05 (scFv, V domains shown)
VH: B1 VH
VL: AVNWYQQLPGKAPKLLIYAADKCPRILMRCKQDSDCLAGCVCGPNGFCGGGSGIPERFSGSKSGTSASLAISGLRSEDEADYYCATWDDNLNGVVFGGGTKLTVLG
B10: KB_C08 (scFv, V domains shown)
VH: B1 VH
VL: B9 VL with D21A, K22V, G50T, G51R, S68F, T86A, N90S, N92S
B11: KB_A09 (scFv, V domains shown)
VH: B1 VH
VL: AVNWYQQLPGKAPKLLIYAAERCPRILMRCKQDSDCLAGCVCGPNGFCGTPSGVPDRFSGSIDTFSNSASLTISGLKTEDEADYYCQSYDSSHHWVFGGGTKLTVLG
B12: KB_A11 (scFv, V domains shown)
VH: B1 VH
VL: YLNWYQQKPGKAPKLLIYAAEICPRILMRCKQDSDCLAGCVCGPNGFCGPSSGIPARFSGSGYGTDFTLTINNIESEDAAYYFCLQHDNFPYTFGQGTKVEIKR
B13: KB_A03 (scFv, V domains shown)
VH: B1 VH
VL: AVNWYQQLPGKAPKLLINAADRCPRILMRCKQDSDCLAGCVCGPNGFCGTNSGVPDRFSGSSSGNTASLTITGAQAEDEADYYCNSRDSSGNNWVFGGGTKVTVLG
B14: KB_B10 (scFv, V domains shown)
VH: B1 VH
VL: QSVLTQLPSVSEAPRQRVTITCGRAMCPRILMRCKQDSDCLAGCVCGPNGFCGTGNWYQQHPGKAPKLIIFDVSKRPSGVPDRFSASKSGNTASLTISGLQAEDEADYYCNSYTSSNTWVFGGGTQLTVLG
B15: KB_B11 (scFv, V domains shown)
VH: B1 VH
VL: TQPPSVSEAPRQRVTITCGSRPCPRILMRCKQDSDCLAGCVCGPNGFCGSHNWYQQLPGSSPTTVIYEDNQRPSGVPDRFSGSIDRSSNSASLTISGLKTEDEADYYCQSYDSSNHRVVFGGGTKLTVLG
B16: KB_B12 (scFv, V domains shown)
VH: B1 VH
VL: TQPPSVSEAPRQRVTITCGERPCPRILMRCKQDSDCLAGCVCGPNGFCGANNWYQQLPGSSPTTVIYEDNQRPSGVPDRFSGSIDSSSNSASLTISGLKTEDEADYYCQSYDSSNQVFGGGTKVTVLG

Changes are numbered by the printed parent chain.

The first test has as its target trypsin. Briefly: Fab TRF, 10 ug/mL Fab.
For B1, the TRF signal was determined as 55600.
B2 registered a TRF signal of 257000.
The same measure, in the same setting: next, B3: 255000; B4: 289000; B5: 56600.
In turn, B6 displayed a TRF signal of 242000.
With B7, the TRF signal was found to be 68700.
In turn, B8 returned a TRF signal of 276000.
On to B9, for which the TRF signal worked out at 218000.
As for B10, the TRF signal was 183000.
Regarding B11, the TRF signal came out at 161000.
B12 came in with a TRF signal of 212000.

In the next test the target is trypsin. Briefly: Fab TRF, 0.6 ug/mL Fab.
As to B1, the TRF signal is 2390.
The same measure, in the same setting: as for B2, the figure is 54800.
Molecule B3 came in with a TRF signal of 93800.
In the case of B4, the TRF signal was determined as 46800.
B5 registered a TRF signal of 2340.
B6: the TRF signal is 108000.
In turn, B7 gave a TRF signal of 14600.
For the molecule B8, the TRF signal was determined as 153000.
The same measure, in the same setting: next, B9: 46700.
Still for that read-out and setting: next, B10: 51100.
Turning to B11, the TRF signal worked out at 21000.
For B12, the TRF signal was 48900.

For another test, the target named is trypsin. As to the kind of experiment: monoclonal phage TRF.
B1 had a Tryspin binding signal (FU) of 20200 FU.
In the case of B2, the Tryspin binding signal (FU) came to 57700 FU.
The molecule B3 displayed a Tryspin binding signal (FU) of 183000 FU.
The same measure, in the same setting: as for B4, the figure is 89400 FU.
For the molecule B5, the Tryspin binding signal (FU) was 116000 FU.
On the same count and under the same terms, as for B6, the figure is 24400 FU.
As for B13, the Tryspin binding signal (FU) turned out to be 28700 FU.
Consider B7, for which the Tryspin binding signal (FU) is 38800 FU.
Regarding B8, the Tryspin binding signal (FU) was 43300 FU.
For B14, the Tryspin binding signal (FU) came to 9270 FU.
B9: the Tryspin binding signal (FU) stood at 121000 FU.
B15 came in with a Tryspin binding signal (FU) of 10300 FU.
B10 showed a Tryspin binding signal (FU) of 76800 FU.
With B11, the Tryspin binding signal (FU) worked out at 57700 FU.
B16 returned a Tryspin binding signal (FU) of 17400 FU.
B12 displayed a Tryspin binding signal (FU) of 16400 FU.

The target in the next test is trypsin. As to the kind of experiment: Fab TRF, 2.4 ug/mL Fab.
In the case of B1, the TRF signal turned out to be 16600.
Take B2: the TRF signal was 153000.
On to B3, for which the TRF signal was found to be 221000.
On to B4, for which the TRF signal is 205000.
Still for that read-out and setting: as for B5, the figure is 15900; as for B6, 212000; as for B7, 71900.
As to B8, the TRF signal amounted to 247000.
The molecule B9 registered a TRF signal of 65400.
Consider B10, for which the TRF signal was 131000.
B11 yielded a TRF signal of 84100.
Regarding B12, the TRF signal stood at 141000.
